Substrate in this series: O=C1NC(=O)C(=O)C(=O)N1
Description: Substrate specificity, NADPH consumption, wild-type TGR. In kind it is biochemical, Schistosoma mansoni. The note with it: pH 7.4; 25.0 °C.

In article PMC3658134 one finds Km and kcat data, which are given here for one protein.

[ ]: non-standard residue; d: D form. Sec = N[C@@H](C[SeH])C(=O)O

B1: wild-type TGR (SmTGR) (Schistosoma mansoni) (protein)
chain: MPPADGTSQWLRKTVDSAAVILFSKTTCPYCKKVKDVLAEAKIKHATIELDQLSNGSAIQKCLASFSKIETVPQMFVRGKFIGDSQTVLKYYSNDELAGIVNESKYDYDLIVIGGGSGGLAAGKEAAKYGAKTAVLDYVEPTPIGTTWGLGGTCVNVGCIPKKLMHQAGLLSHALEDAEHFGWSLDRSKISHNWSTMVEGVQSHIGSLNWGYKVALRDNQVTYLNAKGRLISPHEVQITDKNQKVSTITGNKIILATGERPKYPEIPGAVEYGITSDDLFSLPYFPGKTLVIGASYVALECAGFLASLGGDVTVMVRSILLRGFDQQMAEKVGDYMENHGVKFAKLCVPDEIKQLKVVDTENNKPGLLLVKGHYTDGKKFEEEFETVIFAVGREPQLSKVLCETVGVKLDKNGRVVCTDDEQTTVSNVYAIGDINAGKPQLTPVAIQAGRYLARRLFAGATELTDYSNVATTVFTPLEYGACGLSEEDAIEKYGDKDIEVYHSNFKPLEWTVAHREDNVCYMKLVCRKSDNMRVLGLHVLGPNAGEITQGYAVAIKMGATKADFDRTIGIHPTCSETFTTLHVTKKSGVSPIVSGC[Sec]G
modifications: not fully specified
In the case of B1, the Km came to 940 ± 90 µM and the kcat turned out to be 27.7 ± 0.8 s⁻¹.

Broadly, the Km is the substrate concentration at which the rate is half of its maximum. What is called kcat is the number of substrate molecules converted per active site and unit of time at saturation.
